B1: UvrB (Bacillus caldotenax) (natural protein)
chain: MVEGRFQLVAPYEPQGDQPQAIAKLVDGLRRGVKHQTLLGATGTGKTFTISNVIAQVNKPTLVIAHNKTLAGQLYSELKEFFPHNAVEYFVSYYDYYQPEAYVPQTDTYIEKDAKINDEIDKLRHSATSALFERRDVIIVASVSCIYGLGSPEEYRELVVSLRVGMEIERNALLRRLVDIQYDRNDIDFRGTFRVRGDVVEIFPASRDEHCIRVEFFGDEIERIREVDALTGKVLGEREHVAIFPASHFVTREEKMRLAIQNIEQELEERLAELRAQGKLLEAQRLEQRTRYDLEMMREMGFCSGIENYSRHLALRPPGSTPYTLLDYFPDDFLIIVDESHVTLPQLRGMYNGDRARKQVLVDHGFRLPSALDNRPLTFEEFEQKINQIIYVSATPGPYELEHSPGVVEQIIRPTGLLDPTIDVRPTKGQIDDLIGEIRERVERNERTLVTTLTKKMAEDLTDYLKEAGIKVAYLHSEIKTLERIEIIRDLRLGKYDVLVGINLLREGLDIPEVSLVAILDADKEGFLRSERSLIQTIGRAARNANGHVIMYADTITKSMEIAIQETKRRRAIQEEYNRKHGIVPRTVKKEIRDVIRATYAAEETEMYEAKPAAAMTKQEREELIRTLEAEMKEAAKALDFERAAQLRDIIFELKAEG

Assays:
[1] = target: UvrAB complex formed beforehand on DNA tightropes (Bacillus caldotenax) (UniProt P56981); test: single-molecule fluorescence colocalisation on DNA tightropes (three colours); UvrA, UvrB and UvrC (1:1:0.5 nM) labelled with different Qdots (565, 605, 655 nm), incubated together, then added to undamaged λ-DNA tightropes; room temperature; ABC buffer (50 mM Tris-HCl pH 7.5, 50 mM KCl, 1 mM ATP, 10 mM MgCl2, 10 mM DTT)
[2] = target: UvrAB complex formed beforehand on DNA tightropes (Bacillus caldotenax) (UniProt P56981); test: single-molecule fluorescence colocalisation on DNA tightropes (two colours); UvrAB complexes first formed on undamaged DNA tightropes with the Qdot on UvrB (unlabelled, non-biotinylated UvrA) or on UvrA; streptavidin-Qdot-labelled biotin-UvrC of another colour then added; dual-coloured complexes counted; room temperature; ABC buffer
[3] = target: UvrA (Bacillus caldotenax) (Bacillus caldotenax); test: single-molecule fluorescence colocalisation on DNA tightropes (three colours); UvrA, UvrB and UvrC (1:1:0.5 nM) labelled with different Qdots (565, 605, 655 nm), incubated together, then added to undamaged λ-DNA tightropes; room temperature; ABC buffer (50 mM Tris-HCl pH 7.5, 50 mM KCl, 1 mM ATP, 10 mM MgCl2, 10 mM DTT)
[4] = target: UvrC (Bacillus caldotenax) (Bacillus caldotenax); test: as above

| Molecule | occurrence of the triple-coloured complex among DNA-bound Qdots [1] [%] | occurrence of the dual-colour complex among DNA-bound Qdots [2] [%] | occurrence of the complex among DNA-bound Qdots [3] [%] | occurrence of the complex among DNA-bound Qdots [4] [%] |
| --- | --- | --- | --- | --- |
| UvrC (Bacillus caldotenax) (natural protein) | 1.6 | 16.6 | – | – |
| B1 | – | – | 6.7 | 1.6 |

Source: paper PMC5814901
